# Starred links: 1 amine or outer side, 2 acyl side, 3 side chain; linkers in the order of their positions; H or OH if unused. Non-standard residues stand in square brackets, D forms with d. Groups on a side chain read outwards from the residue. No end group written: not given here. *: point of attachment. C20 diacid = O=C(O)CCCCCCCCCCCCCCCCCCC(=O)*; C18 diacid = O=C(O)CCCCCCCCCCCCCCCCC(=O)*; γGlu = O=C(O)[C@H](CCC(=O)[*:2])N[*:1]; αMeF = C[C@](N)(Cc1ccccc1)C(=O)O; AEEA = NCCOCCOCC(=O)O; Aib = CC(C)(N)C(=O)O
# B1: Peptide 506 (peptide)
# peptide: H[Aib]QGTFTSDVSK[αMeF]LDTK([AEEA-AEEA-γGlu-C20 diacid])RARDFVAWLLE[Aib]G-OH
# modifications: N-terminus assumed
# SMILES: CC(C)C[C@H](NC(=O)[C@H](Cc1c[nH]c2ccccc12)NC(=O)[C@H](C)NC(=O)[C@@H](NC(=O)[C@H](Cc1ccccc1)NC(=O)[C@H](CC(=O)O)NC(=O)[C@H](CCCNC(=N)N)NC(=O)[C@H](C)NC(=O)[C@H](CCCNC(=N)N)NC(=O)[C@H](CCCCNC(=O)COCCOCCNC(=O)COCCOCCNC(=O)CC[C@H](NC(=O)CCCCCCCCCCCCCCCCCCC(=O)O)C(=O)O)NC(=O)[C@@H](NC(=O)[C@H](CC(=O)O)NC(=O)[C@H](CC(C)C)NC(=O)[C@](C)(Cc1ccccc1)NC(=O)[C@H](CCCCN)NC(=O)[C@H](CO)NC(=O)[C@@H](NC(=O)[C@H](CC(=O)O)NC(=O)[C@H](CO)NC(=O)[C@@H](NC(=O)[C@H](Cc1ccccc1)NC(=O)[C@@H](NC(=O)CNC(=O)[C@H](CCC(N)=O)NC(=O)C(C)(C)NC(=O)[C@@H](N)Cc1c[nH]cn1)[C@@H](C)O)[C@@H](C)O)C(C)C)[C@@H](C)O)C(C)C)C(=O)N[C@@H](CC(C)C)C(=O)N[C@@H](CCC(=O)O)C(=O)NC(C)(C)C(=O)NCC(=O)O
# B2: Peptide 500 (peptide)
# peptide: H[Aib]QGTFTSDVSK[αMeF]LDTK([AEEA-AEEA-γGlu-C20 diacid])RAQDFVQWLLR[Aib]A-OH
# modifications: N-terminus assumed
# SMILES: CC(C)C[C@H](NC(=O)[C@H](Cc1c[nH]c2ccccc12)NC(=O)[C@H](CCC(N)=O)NC(=O)[C@@H](NC(=O)[C@H](Cc1ccccc1)NC(=O)[C@H](CC(=O)O)NC(=O)[C@H](CCC(N)=O)NC(=O)[C@H](C)NC(=O)[C@H](CCCNC(=N)N)NC(=O)[C@H](CCCCNC(=O)COCCOCCNC(=O)COCCOCCNC(=O)CC[C@H](NC(=O)CCCCCCCCCCCCCCCCCCC(=O)O)C(=O)O)NC(=O)[C@@H](NC(=O)[C@H](CC(=O)O)NC(=O)[C@H](CC(C)C)NC(=O)[C@](C)(Cc1ccccc1)NC(=O)[C@H](CCCCN)NC(=O)[C@H](CO)NC(=O)[C@@H](NC(=O)[C@H](CC(=O)O)NC(=O)[C@H](CO)NC(=O)[C@@H](NC(=O)[C@H](Cc1ccccc1)NC(=O)[C@@H](NC(=O)CNC(=O)[C@H](CCC(N)=O)NC(=O)C(C)(C)NC(=O)[C@@H](N)Cc1c[nH]cn1)[C@@H](C)O)[C@@H](C)O)C(C)C)[C@@H](C)O)C(C)C)C(=O)N[C@@H](CC(C)C)C(=O)N[C@@H](CCCNC(=N)N)C(=O)NC(C)(C)C(=O)N[C@@H](C)C(=O)O
# B3: Peptide 502 (peptide)
# peptide: H[Aib]QGTFTSDVSK[αMeF]LDTK([AEEA-AEEA-γGlu-C20 diacid])RARDFVQWLLR[Aib]A-OH
# modifications: N-terminus assumed
# SMILES: CC(C)C[C@H](NC(=O)[C@H](Cc1c[nH]c2ccccc12)NC(=O)[C@H](CCC(N)=O)NC(=O)[C@@H](NC(=O)[C@H](Cc1ccccc1)NC(=O)[C@H](CC(=O)O)NC(=O)[C@H](CCCNC(=N)N)NC(=O)[C@H](C)NC(=O)[C@H](CCCNC(=N)N)NC(=O)[C@H](CCCCNC(=O)COCCOCCNC(=O)COCCOCCNC(=O)CC[C@H](NC(=O)CCCCCCCCCCCCCCCCCCC(=O)O)C(=O)O)NC(=O)[C@@H](NC(=O)[C@H](CC(=O)O)NC(=O)[C@H](CC(C)C)NC(=O)[C@](C)(Cc1ccccc1)NC(=O)[C@H](CCCCN)NC(=O)[C@H](CO)NC(=O)[C@@H](NC(=O)[C@H](CC(=O)O)NC(=O)[C@H](CO)NC(=O)[C@@H](NC(=O)[C@H](Cc1ccccc1)NC(=O)[C@@H](NC(=O)CNC(=O)[C@H](CCC(N)=O)NC(=O)C(C)(C)NC(=O)[C@@H](N)Cc1c[nH]cn1)[C@@H](C)O)[C@@H](C)O)C(C)C)[C@@H](C)O)C(C)C)C(=O)N[C@@H](CC(C)C)C(=O)N[C@@H](CCCNC(=N)N)C(=O)NC(C)(C)C(=O)N[C@@H](C)C(=O)O
# B4: Peptide 504 (peptide)
# peptide: H[Aib]QGTFTSDVSK[αMeF]LESK([AEEA-AEEA-γGlu-C20 diacid])RAQDFVRWLLE[Aib]K-OH
# modifications: N-terminus assumed
# SMILES: CC(C)C[C@H](NC(=O)[C@H](Cc1c[nH]c2ccccc12)NC(=O)[C@H](CCCNC(=N)N)NC(=O)[C@@H](NC(=O)[C@H](Cc1ccccc1)NC(=O)[C@H](CC(=O)O)NC(=O)[C@H](CCC(N)=O)NC(=O)[C@H](C)NC(=O)[C@H](CCCNC(=N)N)NC(=O)[C@H](CCCCNC(=O)COCCOCCNC(=O)COCCOCCNC(=O)CC[C@H](NC(=O)CCCCCCCCCCCCCCCCCCC(=O)O)C(=O)O)NC(=O)[C@H](CO)NC(=O)[C@H](CCC(=O)O)NC(=O)[C@H](CC(C)C)NC(=O)[C@](C)(Cc1ccccc1)NC(=O)[C@H](CCCCN)NC(=O)[C@H](CO)NC(=O)[C@@H](NC(=O)[C@H](CC(=O)O)NC(=O)[C@H](CO)NC(=O)[C@@H](NC(=O)[C@H](Cc1ccccc1)NC(=O)[C@@H](NC(=O)CNC(=O)[C@H](CCC(N)=O)NC(=O)C(C)(C)NC(=O)[C@@H](N)Cc1c[nH]cn1)[C@@H](C)O)[C@@H](C)O)C(C)C)C(C)C)C(=O)N[C@@H](CC(C)C)C(=O)N[C@@H](CCC(=O)O)C(=O)NC(C)(C)C(=O)N[C@@H](CCCCN)C(=O)O
# B5: Peptide 505 (peptide)
# peptide: H[Aib]QGTFTSDVSK[αMeF]LDTK([AEEA-AEEA-γGlu-C20 diacid])RAQDFVQWLLE[Aib]K-NH2
# modifications: N-terminus assumed
# SMILES: CC(C)C[C@H](NC(=O)[C@H](Cc1c[nH]c2ccccc12)NC(=O)[C@H](CCC(N)=O)NC(=O)[C@@H](NC(=O)[C@H](Cc1ccccc1)NC(=O)[C@H](CC(=O)O)NC(=O)[C@H](CCC(N)=O)NC(=O)[C@H](C)NC(=O)[C@H](CCCNC(=N)N)NC(=O)[C@H](CCCCNC(=O)COCCOCCNC(=O)COCCOCCNC(=O)CC[C@H](NC(=O)CCCCCCCCCCCCCCCCCCC(=O)O)C(=O)O)NC(=O)[C@@H](NC(=O)[C@H](CC(=O)O)NC(=O)[C@H](CC(C)C)NC(=O)[C@](C)(Cc1ccccc1)NC(=O)[C@H](CCCCN)NC(=O)[C@H](CO)NC(=O)[C@@H](NC(=O)[C@H](CC(=O)O)NC(=O)[C@H](CO)NC(=O)[C@@H](NC(=O)[C@H](Cc1ccccc1)NC(=O)[C@@H](NC(=O)CNC(=O)[C@H](CCC(N)=O)NC(=O)C(C)(C)NC(=O)[C@@H](N)Cc1c[nH]cn1)[C@@H](C)O)[C@@H](C)O)C(C)C)[C@@H](C)O)C(C)C)C(=O)N[C@@H](CC(C)C)C(=O)N[C@@H](CCC(=O)O)C(=O)NC(C)(C)C(=O)N[C@@H](CCCCN)C(N)=O
# B6: Peptide 501 (peptide)
# peptide: H[Aib]QGTFTSDVSK[αMeF]LDTK([AEEA-AEEA-γGlu-C18 diacid])RARDFVQWLLR[Aib]A-OH
# modifications: N-terminus assumed
# SMILES: CC(C)C[C@H](NC(=O)[C@H](Cc1c[nH]c2ccccc12)NC(=O)[C@H](CCC(N)=O)NC(=O)[C@@H](NC(=O)[C@H](Cc1ccccc1)NC(=O)[C@H](CC(=O)O)NC(=O)[C@H](CCCNC(=N)N)NC(=O)[C@H](C)NC(=O)[C@H](CCCNC(=N)N)NC(=O)[C@H](CCCCNC(=O)COCCOCCNC(=O)COCCOCCNC(=O)CC[C@H](NC(=O)CCCCCCCCCCCCCCCCC(=O)O)C(=O)O)NC(=O)[C@@H](NC(=O)[C@H](CC(=O)O)NC(=O)[C@H](CC(C)C)NC(=O)[C@](C)(Cc1ccccc1)NC(=O)[C@H](CCCCN)NC(=O)[C@H](CO)NC(=O)[C@@H](NC(=O)[C@H](CC(=O)O)NC(=O)[C@H](CO)NC(=O)[C@@H](NC(=O)[C@H](Cc1ccccc1)NC(=O)[C@@H](NC(=O)CNC(=O)[C@H](CCC(N)=O)NC(=O)C(C)(C)NC(=O)[C@@H](N)Cc1c[nH]cn1)[C@@H](C)O)[C@@H](C)O)C(C)C)[C@@H](C)O)C(C)C)C(=O)N[C@@H](CC(C)C)C(=O)N[C@@H](CCCNC(=N)N)C(=O)NC(C)(C)C(=O)N[C@@H](C)C(=O)O
# B7: Peptide 508 (peptide)
# peptide: H[Aib]QGTFTSDVSK[αMeF]LESK([AEEA-AEEA-γGlu-C20 diacid])RAQDFVRWLVE[Aib]G-NH2
# modifications: N-terminus assumed
# SMILES: CC(C)C[C@H](NC(=O)[C@H](Cc1c[nH]c2ccccc12)NC(=O)[C@H](CCCNC(=N)N)NC(=O)[C@@H](NC(=O)[C@H](Cc1ccccc1)NC(=O)[C@H](CC(=O)O)NC(=O)[C@H](CCC(N)=O)NC(=O)[C@H](C)NC(=O)[C@H](CCCNC(=N)N)NC(=O)[C@H](CCCCNC(=O)COCCOCCNC(=O)COCCOCCNC(=O)CC[C@H](NC(=O)CCCCCCCCCCCCCCCCCCC(=O)O)C(=O)O)NC(=O)[C@H](CO)NC(=O)[C@H](CCC(=O)O)NC(=O)[C@H](CC(C)C)NC(=O)[C@](C)(Cc1ccccc1)NC(=O)[C@H](CCCCN)NC(=O)[C@H](CO)NC(=O)[C@@H](NC(=O)[C@H](CC(=O)O)NC(=O)[C@H](CO)NC(=O)[C@@H](NC(=O)[C@H](Cc1ccccc1)NC(=O)[C@@H](NC(=O)CNC(=O)[C@H](CCC(N)=O)NC(=O)C(C)(C)NC(=O)[C@@H](N)Cc1c[nH]cn1)[C@@H](C)O)[C@@H](C)O)C(C)C)C(C)C)C(=O)N[C@H](C(=O)N[C@@H](CCC(=O)O)C(=O)NC(C)(C)C(=O)NCC(N)=O)C(C)C
# Target: human glucagon receptor (human, UniProt P47871)
# Assay: cell-based or functional assay
row,cAMP production EC50,Binder
1,149 pM,B1
2,86.6 pM,H[Aib]QGTFTSDVSK[αMeF]LDTK([AEEA-AEEA-γGlu-C20 diacid])RARDFVAWLLE[Aib]G-NH2 [Peptide 507]
3,101 pM,B2
4,175 pM,B3
5,551 pM,B4
6,191 pM,B5
7,84.9 pM,H[Aib]QGTFTSDVSK[αMeF]LDTK([AEEA-AEEA-γGlu-C20 diacid])RAQDFVRWLLE[Aib]K-OH [Peptide 503]
8,75.6 pM,B6
9,2800 pM,B7

# Target: human GLP-1 receptor (human, UniProt P43220)
# Assay: cell-based or functional assay
row,cAMP production EC50,Binder
1,162 pM,B1
2,52.9 pM,H[Aib]QGTFTSDVSK[αMeF]LDTK([AEEA-AEEA-γGlu-C20 diacid])RARDFVAWLLE[Aib]G-NH2 [Peptide 507]
3,102 pM,B2
4,82.1 pM,B3
5,124 pM,B4
6,42.1 pM,B5
7,81.2 pM,H[Aib]QGTFTSDVSK[αMeF]LDTK([AEEA-AEEA-γGlu-C20 diacid])RAQDFVRWLLE[Aib]K-OH [Peptide 503]
8,26.5 pM,B6
9,67.9 pM,B7
